Drawing on the supplement of paper PMC10567573, this text covers protein stability index for 94 variants.

B1: CDC14A (parent)
chain: GPHPKSKIENGYPLHAPEAYFPYF
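Note: lentivirally expressed fusions sorted by FACS into six bins by GFP to DsRed ratio, PSI derived from sequencing read proportions per bin multiplied by bin number.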

The variants in this data set derive from B1. In words: protein stability index of a GFP-peptide fusion (GPS, HEK-293T) (PSI 1-6); higher = more stable. The following applies: c terminus: a fixed tail appended.
As to GPHPKSFIENGYPLHAPEAYFPYF [K7F], the protein stability index came out at 1.99. The same measure for GPHPKSDIENGYPLHAPEAYFPYF [K7D]: 2.13; for GPHPKSVIENGYPLHAPEAYFPYF [K7V]: 2.59.

Regarding GPHPKSIIENGYPLHAPEAYFPYF [K7I], the protein stability index was 1.98. Regarding GPHPKSHIENGYPLHAPEAYFPYF [K7H], the protein stability index was determined as 2.22.

With GPHPKSLIENGYPLHAPEAYFPYF [K7L], the protein stability index was determined as 2.06. In the case of GPHPKSKIENGYPLHAPEAHFPYF [Y20H] it was 2.71. For the variant GPHPKSKIENGYPLHAPEAKFPYF [Y20K], the protein stability index came out at 2.79.

On to GPHPKSKIENGYPLHAPEASFPYF [Y20S], for which the protein stability index came to 2.55. In the case of GPHPKSKIENGYPLHAPEAVFPYF [Y20V], the protein stability index was found to be 2.55. In the case of GPHPKSKIENGYPLHAPEAAFPYF [Y20A] it was 2.76; in that of GPHPKSKIENGYPLHAPEACFPYF [Y20C], 2.19; in that of GPHPKSKIENGYPLHAPEAYFPGF [Y23G], 3.21. In the case of GPHPKSKIENGYPLHAPEAYFPHF [Y23H], the protein stability index was found to be 2.97. Take GPHPKSKIENGYPLHAPEAYFPDF [Y23D]: the protein stability index was found to be 3.92.

Consider GPHPKSKIENGYPLHAPEAYFPKF [Y23K], for which the protein stability index came to 3.13. With GPHSKSKIENGYPLHAPEAYFPYF [P4S], the protein stability index stood at 1.86. The same measure for GPHYKSKIENGYPLHAPEAYFPYF [P4Y]: 1.89. With GPHLKSKIENGYPLHAPEAYFPYF [P4L], the protein stability index was 1.51. Consider GPHTKSKIENGYPLHAPEAYFPYF [P4T], for which the protein stability index came to 2. As for GPHNKSKIENGYPLHAPEAYFPYF [P4N], the protein stability index is 2.48. In the case of GPHGKSKIENGYPLHAPEAYFPYF [P4G] it was 2.22.

As for GPHDKSKIENGYPLHAPEAYFPYF [P4D], the protein stability index was found to be 2.12. In the case of GPHIKSKIENGYPLHAPEAYFPYF [P4I] it was 1.91; in that of GPHKKSKIENGYPLHAPEAYFPYF [P4K], 2.29; in that of GPHEKSKIENGYPLHAPEAYFPYF [P4E], 2.11. In the case of GPHPKGKIENGYPLHAPEAYFPYF [S6G] it was 2.14. As to GPHPKIKIENGYPLHAPEAYFPYF [S6I], the protein stability index is 2.01. The same measure for GPHPKDKIENGYPLHAPEAYFPYF [S6D]: 2.59. For GPHPKCKIENGYPLHAPEAYFPYF [S6C], the protein stability index came out at 1.87. Consider GPHPKRKIENGYPLHAPEAYFPYF [S6R], for which the protein stability index amounted to 2.2. In the case of GPHPKHKIENGYPLHAPEAYFPYF [S6H] it was 2.63. In the case of GPHPKKKIENGYPLHAPEAYFPYF [S6K] it was 2.58. The same measure for GPHPVSKIENGYPLHAPEAYFPYF [K5V]: 1.92. As to GPHPGSKIENGYPLHAPEAYFPYF [K5G], the protein stability index stood at 1.99.

Turning to GPHPESKIENGYPLHAPEAYFPYF [K5E], the protein stability index worked out at 2.5. The same measure for GPHPRSKIENGYPLHAPEAYFPYF [K5R]: 2.38; for GPHPFSKIENGYPLHAPEAYFPYF [K5F]: 1.29; for GPHPYSKIENGYPLHAPEAYFPYF [K5Y]: 1.66. Regarding GPHPKSKIENGYPSHAPEAYFPYF [L14S], the protein stability index was 2.79. In the case of GPHPKSKIENGYPTHAPEAYFPYF [L14T] it was 2.45; in that of GPHPKSKIENGYPQHAPEAYFPYF [L14Q], 3.06; in that of GPHPKSKIENGYPWHAPEAYFPYF [L14W], 2.46. In the case of GPHPKSKIENGYPCHAPEAYFPYF [L14C] it was 1.67; in that of GPHPKSKIENGYPMHAPEAYFPYF [L14M], 2.41; in that of GPHPKSKIENGYPIHAPEAYFPYF [L14I], 2.27. In the case of GPHPKSKIENGYPEHAPEAYFPYF [L14E] it was 3.65; in that of GPHPKSKIENGYPLHADEAYFPYF [P17D], 2.71; in that of GPHPKSKIENGYPLHAVEAYFPYF [P17V], 1.92. Consider GPHPKSKIENGYPLHAHEAYFPYF [P17H], for which the protein stability index was 1.84. In the case of GPHPKSKIENGYPLHACEAYFPYF [P17C], the protein stability index is 2. In the case of GPHPKSKIENGYPLHAMEAYFPYF [P17M] it was 2.07; in that of GPHPKSKIENGYPLHATEAYFPYF [P17T], 3.15; in that of GPHPKSKIENGYPLHAFEAYFPYF [P17F], 1.87.

For GPHPKSKIENGRPLHAPEAYFPYF [Y12R], the protein stability index was 2.58. The same measure for GPHPKSKIENGIPLHAPEAYFPYF [Y12I]: 2.82; for GPHPKSKIENGCPLHAPEAYFPYF [Y12C]: 2.42. In the case of GPHPKSKIENGQPLHAPEAYFPYF [Y12Q], the protein stability index was found to be 2.7.

As for GPHPKSKIENGMPLHAPEAYFPYF [Y12M], the protein stability index was determined as 2.74. As to GPHPKSKIENGTPLHAPEAYFPYF [Y12T], the protein stability index is 3.07. The same measure for GPHPKSKIENGDPLHAPEAYFPYF [Y12D]: 3.24; for GPHPKSKIENGAPLHAPEAYFPYF [Y12A]: 2.99; for GPHPKSKIENGGPLHAPEAYFPYF [Y12G]: 2.67. As to GPHPKSKIENGKPLHAPEAYFPYF [Y12K], the protein stability index was found to be 2.69. With GPHPKSKQENGYPLHAPEAYFPYF [I8Q], the protein stability index was 2.7. For GPHPKSKDENGYPLHAPEAYFPYF [I8D], the protein stability index is 3.34. In the case of GPHPKSKNENGYPLHAPEAYFPYF [I8N] it was 2.98. GPHPKSKVENGYPLHAPEAYFPYF [I8V]: the protein stability index came to 2.48. Regarding GPHPKSKMENGYPLHAPEAYFPYF [I8M], the protein stability index is 2.09.

Regarding GPHPKSKRENGYPLHAPEAYFPYF [I8R], the protein stability index was found to be 2.75. The same measure for GHHPKSKIENGYPLHAPEAYFPYF [P2H]: 2.46; for GQHPKSKIENGYPLHAPEAYFPYF [P2Q]: 2.14. In the case of GDHPKSKIENGYPLHAPEAYFPYF [P2D], the protein stability index amounted to 2.29.

Regarding GCHPKSKIENGYPLHAPEAYFPYF [P2C], the protein stability index was 1.67. Take GGHPKSKIENGYPLHAPEAYFPYF [P2G]: the protein stability index is 1.74. The same measure for GRHPKSKIENGYPLHAPEAYFPYF [P2R]: 2.34. In the case of GYHPKSKIENGYPLHAPEAYFPYF [P2Y] it was 1.85; in that of GAHPKSKIENGYPLHAPEAYFPYF [P2A], 2.35.

In the case of GMHPKSKIENGYPLHAPEAYFPYF [P2M], the protein stability index was 2.13. The same measure for GNHPKSKIENGYPLHAPEAYFPYF [P2N]: 2.1; for GPHPKSKIENGYPLHAPEYYFPYF [A19Y]: 2.35; for GPHPKSKIENGYPLHAPELYFPYF [A19L]: 1.98. GPHPKSKIENGYPLHAPEPYFPYF [A19P]: the protein stability index was 2.41.

GPHPKSKIENGYPLHAPEHYFPYF [A19H]: the protein stability index stood at 2.22. In the case of GPHPKSKIENGYPLHAPEDYFPYF [A19D] it was 2.2; in that of GPHPKSKIENGYPLHAPETYFPYF [A19T], 2.39. In the case of GPHPKSKIENGYPLHAPEFYFPYF [A19F] it was 2.39; in that of GPHPKSKIENGYPLHAPEKYFPYF [A19K], 2.51; in that of GPHPKSKIENGYPLHAPEEYFPYF [A19E], 2.36. Consider GPHPKSKIENGYPLHAPEGYFPYF [A19G], for which the protein stability index stood at 2.22. In the case of GPHPKSKIENGYPLHAPENYFPYF [A19N] it was 2.71; in that of GPHPKSKIENGYPLHAPEVYFPYF [A19V], 1.89. In the case of GPHPKSKIENGYELHAPEAYFPYF [P13E] it was 2.94; in that of GPHPKSKIENGYMLHAPEAYFPYF [P13M], 1.68.
